This note sets out measurements from patent US20120288507A1 (Amgen, published 2012).

The target in assay [1] is T1, human WISE (human, UniProt Q6X4U4 24-206).
T1 construct: Recombinant protein secreted from mammalian cells; also called hWISE; huWISE
T1 sequence: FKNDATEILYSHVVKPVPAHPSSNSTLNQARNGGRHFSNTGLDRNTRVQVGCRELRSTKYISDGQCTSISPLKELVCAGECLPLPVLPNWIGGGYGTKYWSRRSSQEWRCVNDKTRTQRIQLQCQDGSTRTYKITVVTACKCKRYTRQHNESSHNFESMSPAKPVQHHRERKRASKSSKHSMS
Put plainly: capture ELISA binding profile (FIG. 23). How it is done: (§1) Relative capture of individual WISE mutant proteins or wild type proteins by either neutralizing antibodies or non-neutralizing antibodies was compared to assess whether any of these single amino acid changes affects the binding of an antibody to WISE protein. The bound WISE proteins were then detected using HRP-conjugated affinity-purified polyclonal antibody against WISE.
(§2) Purified anti-WISE antibodies (0.5 ug/ml) were added onto high-binding ELISA plates pre-coated with 1 ug/ml of goat anti-mouse IgG Fc (Pierce). Plates were incubated for 1 hour in room temperature. Plates were then washed 4× with Wash Buffer. Subsequently alanine scanned WISE loop-2 mutant supernatants from transient transfection cultures (100× diluted) were added and incubated for 1 hour in room temperature. After 4× wash, rabbit anti-WISE Pab-biotin (50 ng/ml)+NeutrAvidin-HRP (Pierce, Cat #31001) were added onto the plates and incubated for 1 hour in room temperature. Plates were again washed 4× with Wash Buffer. Binding was analyzed using 1-Step Ultra TMB-ELISA substrate (Pierce; Cat #34028) according to the manufacturer's instructions.

Assay [2] addresses T2, human WISE G115A (human, UniProt Q6X4U4 24-206).
T2 construct: Alanine mutant of loop 2, used as supernatant of transiently transfected mammalian cells
T2 chain: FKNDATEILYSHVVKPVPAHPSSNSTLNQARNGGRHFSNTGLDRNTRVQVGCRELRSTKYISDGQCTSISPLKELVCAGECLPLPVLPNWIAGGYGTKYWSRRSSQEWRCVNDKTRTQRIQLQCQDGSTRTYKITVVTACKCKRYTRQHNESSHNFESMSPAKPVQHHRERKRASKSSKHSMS
The assay can be described thus: capture ELISA, WISE mutant supernatant (FIG. 23). How it is done:
as §1, §2
On the technique in general: ELISA stands for enzyme-linked immunosorbent assay.

In assay [3] the target is T3, human WISE G117A (human, UniProt Q6X4U4 24-206).
T3 construct: Alanine mutant of loop 2, used as supernatant of transiently transfected mammalian cells
T3 chain: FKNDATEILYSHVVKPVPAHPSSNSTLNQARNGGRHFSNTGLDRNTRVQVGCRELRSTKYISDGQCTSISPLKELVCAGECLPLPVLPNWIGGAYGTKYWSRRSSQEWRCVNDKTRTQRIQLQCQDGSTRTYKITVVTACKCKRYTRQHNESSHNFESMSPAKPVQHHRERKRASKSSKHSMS
Put plainly: capture ELISA, WISE mutant supernatant (FIG. 23). As to the method:
as §1, §2

Assay [4] addresses T1, human WISE. The assay can be described thus: capture ELISA binding profile (FIG. 24). How it is done: as §1, §2
The target in assay [5] is T2, human WISE G115A. The assay can be described thus: capture ELISA, WISE mutant supernatant (FIG. 24). How it is done:
as §1, §2

Assay [6] addresses T3, human WISE G117A. The assay can be described thus: capture ELISA, WISE mutant supernatant (FIG. 24). As to the method:
as §1, §2

For assay [7], the target named is T1, human WISE. Put plainly: murine hybridoma antibodies; assay not given.
Assay [8] deals with T4, human WISE N112A (human, UniProt Q6X4U4 24-206).
T4 construct: Alanine mutant of loop 2, used as supernatant of transiently transfected mammalian cells
T4 chain: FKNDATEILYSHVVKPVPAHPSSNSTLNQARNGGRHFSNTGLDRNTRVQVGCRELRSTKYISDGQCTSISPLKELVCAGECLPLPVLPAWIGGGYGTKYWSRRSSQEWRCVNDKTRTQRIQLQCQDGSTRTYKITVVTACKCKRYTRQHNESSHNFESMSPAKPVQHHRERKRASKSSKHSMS
The assay can be described thus: capture ELISA, WISE mutant supernatant (FIG. 25). How it is done:
as §1, §2

The target in assay [9] is T5, human WISE I114A (human, UniProt Q6X4U4 24-206).
T5 construct: Alanine mutant of loop 2, used as supernatant of transiently transfected mammalian cells
T5 chain: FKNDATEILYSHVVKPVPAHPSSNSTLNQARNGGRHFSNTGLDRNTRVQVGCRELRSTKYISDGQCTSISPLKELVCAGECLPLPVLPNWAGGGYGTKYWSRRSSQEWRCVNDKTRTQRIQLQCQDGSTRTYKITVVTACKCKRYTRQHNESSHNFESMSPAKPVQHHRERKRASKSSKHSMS
Put plainly: capture ELISA, WISE mutant supernatant (FIG. 25). As to the method: as §1, §2

For assay [10], the target named is T2, human WISE G115A. Put plainly: capture ELISA, WISE mutant supernatant (FIG. 25). As to the method: as §1, §2
In assay [11] the target is T6, human WISE K121A (human, UniProt Q6X4U4 24-206).
T6 construct: Alanine mutant of loop 2, used as supernatant of transiently transfected mammalian cells
T6 chain: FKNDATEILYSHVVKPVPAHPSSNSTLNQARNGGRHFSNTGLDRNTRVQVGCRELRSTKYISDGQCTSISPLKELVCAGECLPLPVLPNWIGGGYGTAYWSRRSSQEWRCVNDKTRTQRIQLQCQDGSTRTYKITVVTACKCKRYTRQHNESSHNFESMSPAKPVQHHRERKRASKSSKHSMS
Put plainly: capture ELISA, WISE mutant supernatant (FIG. 25). As to the method: as §1, §2

Assay [12] deals with T1, human WISE. The assay can be described thus: capture ELISA binding profile (FIG. 26). How it is done: as §1, §2
The target of assay [13] is T4, human WISE N112A. The assay can be described thus: capture ELISA, WISE mutant supernatant (FIG. 26). How it is done:
as §1, §2

Assay [14] concerns the target T5, human WISE I114A. Put plainly: capture ELISA, WISE mutant supernatant (FIG. 26). As to the method: as §1, §2
The target in assay [15] is T7, biotinylated recombinant human WISE (human, UniProt Q6X4U4 24-206, biotinylated (site not stated)).
T7 construct: Same protein as m1, biotinylated; Used in the AlphaScreen with LRP6, in phage panning and on the Octet streptavidin biosensors; also called biotinylated huWise; biotinylated human WISE
T7 sequence: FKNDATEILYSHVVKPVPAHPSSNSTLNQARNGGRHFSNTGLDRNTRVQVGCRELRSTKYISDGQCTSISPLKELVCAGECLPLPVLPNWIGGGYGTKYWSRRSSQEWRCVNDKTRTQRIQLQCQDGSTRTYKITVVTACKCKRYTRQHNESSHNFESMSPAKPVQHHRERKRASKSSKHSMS
The assay can be described thus: Octet QK, crude conditioned medium, streptavidin biosensors with biotinylated human WISE. How it is done: Affinity maturation was performed on D14 IgG2 in order to improve the inhibitory activity. Every residue in all CDRs of heavy chain (31 positions) and light chain (29 positions) was mutated by randomized mutagenesis. Seven heavy chain mutations in 5 positions and ten light chain mutations in 6 positions that improved the binding to human WISE were identified by affinity measurement on Octet QK (ForteBio) using crude condition medium samples and streptavidin Biosensors coated with biotinylated human WISE. L34, L36, H66 and H127 were four top single-residue mutants. Beneficial heavy chain mutation and light chain mutation were paired in matrix by transient transfection in 293 6E cells to yield further improved double mutants (DM, one mutation in heavy chain and one in light chain). Ten DM mutants were selected. Two best heavy chain mutations (H66 and H127) were combined by overlapping PCR. The resulted heavy chain with double mutations was paired with L34 or L36 to yield two triple mutants (TM1 and TM2).
A general note: Biolayer interferometry detects binding as a change in optical thickness at a sensor tip.

B1: Ab-AI (antibody, V domains shown)
VH: QVTLKESGPGILQPSQTLSLTCSFSGFSLTTSGMGVSWIRQPSGGSLEWLAHIFWDDDKRYNPSLTSRLTISKDASRNQVFLKISSVDTADAATYYCARGGDYYSTGFGFDYWGQGTLVTVSA
VL: DIVVSQAPSSLAVSVGEKIIMSCKSSQSLLHSSNQRNYLAWYQQKPGQSPKLLISWASIRESGVPDRFTGSGSGTDFTLTISSVKTEDLAVYYCHQYYSYSTFGAGTKLELK
notes: Murine anti-WISE monoclonal antibody; also called WISE Loop 2 Mab (Ab-AI)
B1: the binding result in assay [1], in [2] and in assay [3] was “binds” throughout.

B2: Ab-AC (antibody, V domains shown)
VH: QVTLKESGPEILQPSQTLSLTCSFSGFSLTTSGMGVSWIRQPSGGSLEWLAHIFWDDDKRYNPSLTSRLTISKDAPRNQVFLKITSVDTADAATYYCARGGDYYSTGFGFDYWGQGTLVTVSA
VL: DIVVSQAPSSLAVSVGEKIIMSCKSSQSLLHSSNRRNYLAWYQQKPGQSPKLLISWASIRESGVPDRFTGSGSGTDFTLTISSVKTEDLAIYYCHQYYTYSTFGAGTKLELK
notes: Murine monoclonal antibody purified from hybridoma; also called WISE Loop 2 Mab (Ab-AC)
For B2, the binding result in assay [4], in assay [5] and in [6] was “binds” throughout.

B3: Ab-AD (antibody, V domains shown)
VH: EVQLQQSGTVLARPGASVKMSCKASGYTFTSYWMHWVKQRPGQGLEWIVAIYPGNSDTNYNQKFKGKAKLTAVTSTSTAYMELNSLTNEDSAVYYCVRGFITAPYFDYWGQGTTLTVSS
VL: DIQMTQSPASLAASVGESITITCQASENIYFSLAWYQQKQGRSPQLLIYHAKSLEDGVPSRFSGSGSGTQYSMKINSMQPEDTATYFCKQAYDHPFTFGTGTKLEMK
notes: Murine monoclonal antibody from hybridoma
On to B3, for which, in [7], the binding result is “binds”.

B4: Ab-AA (antibody, V domains shown)
VH: EVQLQQSGAELVRSGASVKLSCTASGFNIKDYYIHWMKQRPEQGLEWIGWIDPENGDTESAPKFQGKATMTADTSSNTAYLHLSSLTFEDTAVYYCNAEGYGSRHWYFDVWGAGTTVTVSS
VL: DIVMSQSPSSLAVSAGEKVTMSCKSSQSLLNSRTRKNYLAWYQQKPGQSPKLLIYWASTRQSGVPDRFTGSGSGTDFTLTISSVQAEDLAVYYCKQSYNLLTFGAGTKLELK
notes: Murine monoclonal antibody purified from hybridoma; also called WISE Loop 2 Mab (Ab-AA)
In the case of B4, the binding result in [8], in [9], in assay [10], in assay [11] and in [7] was “binds” each time.

B5: Ab-AH (antibody, V domains shown)
VH: EVQLQQSGAELVRSGASVRLSCTASGFNIKDFYMHWLKQRPEQGLEWIGWIDPENGDTESAPKFQGKATMTADTSSNTAYLQLSSLTSEDTAVYCCNAEGYDNSHWYFDVWGAGTTVTVSS
VL: DIVMSQSPSSLAVSAGEKVTMSCKSSQSLLNSRTRKNYLAWYQQKPGQSPKLLIYWASTRKSGVPDRFIGSGSGTDFTLTISSVQAEDLAVYYCKQSYNLVTFGAGTKLELK
notes: Murine anti-WISE monoclonal antibody; also called WISE Loop 2 Mab (Ab-AH)
Take B5: the binding result in assay [12], in assay [13] and in [14] was “binds” throughout.

B6: D14 IgG2 single-residue mutant L34 (antibody, V domains shown)
VH: EVQLLESGGGLVQPGGSLRLSCAASGFTFSLYTMQWVRQAPGKGLEWVSGIGSSGGGTSYADSVKGRFTISRDNSKNTLYLQMNSLRAEDTAVYYCARGVSSWFFEYWGQGTLVTVSS
VL: QYELTQPPSVAVSPGKTASITCAGDELGGKYAAWYQQKPGQAPVLVVYDDSDRPSGIPERFSGSNSGNTATLTISRVEAGDEADYYCQVWDRSSYHVVFGGGTKLTVLG
notes: L34 is a mutant label, not a residue number; Tested as crude conditioned medium; also called L34(LC CDR1-7G)
With B6, the binding result in assay [15] is reported as “binds”.

B7: D14 IgG2 single-residue mutant H127 (antibody, V domains shown)
VH: EVQLLESGGGLVQPGGSLRLSCAASGFTFSLYTMQWVRQAPGKGLEWVSGIGSSGGGTSYADSVKGRFTISRDNSKNTLYLQMNSLRAEDTAVYYCARGVSGWFFEYWGQGTLVTVSS
VL: QYELTQPPSVAVSPGKTASITCAGDELGNKYAAWYQQKPGQAPVLVVYDDSDRPSGIPERFSGSNSGNTATLTISRVEAGDEADYYCQVWDRSSYHVVFGGGTKLTVLG
notes: H127 is a mutant label, not a residue number; Tested as crude conditioned medium; also called H127(HC CDR3-4G)
Consider B7, for which the binding result in assay [15] was “binds”.

B8: D14 IgG2 single-residue mutant H66 (antibody, V domains shown)
VH: EVQLLESGGGLVQPGGSLRLSCAASGFTFSLYTMQWVRQAPGKGLEWVSGIGSSGGPTSYADSVKGRFTISRDNSKNTLYLQMNSLRAEDTAVYYCARGVSSWFFEYWGQGTLVTVSS
VL: QYELTQPPSVAVSPGKTASITCAGDELGNKYAAWYQQKPGQAPVLVVYDDSDRPSGIPERFSGSNSGNTATLTISRVEAGDEADYYCQVWDRSSYHVVFGGGTKLTVLG
notes: H66 is a mutant label, not a residue number; Tested as crude conditioned medium; also called H66(HC CDR2-8P)
In the case of B8, the binding result in assay [15] was “binds”.

B9: D14-L36 (antibody, human IgG2, lambda, V domains shown)
VH: EVQLLESGGGLVQPGGSLRLSCAASGFTFSLYTMQWVRQAPGKGLEWVSGIGSSGGGTSYADSVKGRFTISRDNSKNTLYLQMNSLRAEDTAVYYCARGVSSWFFEYWGQGTLVTVSS
VL: QYELTQPPSVAVSPGKTASITCAGDELGSKYAAWYQQKPGQAPVLVVYDDSDRPSGIPERFSGSNSGNTATLTISRVEAGDEADYYCQVWDRSSYHVVFGGGTKLTVLG
notes: Tested as crude conditioned medium; also called L36(LC CDR1-7S); LC-CDR1-7 N->S
Regarding B9, the binding result in assay [15] was “binds”.
